# In a protein production outcome set (Wang et al. 2014):
# Assay: label from the status in PepcDB records
row,Sequence,protein production
1,MSLEEELRRETLKWLERIEERVKEIEGDEGFMRNIEAYISDSRYFLEKGDLVRAFECVVWAWAWLEIGLEVGKLHETAEGHHHHHH,not failed
2,MSLEERVKEIIAEQLGVEKEKITPEAKFVEDLGADSLDVVELIMAFEEEFGIEIPDEDAEKIQTVGDVINYLKEKVGG,not failed
3,MSLFEQLDELAAQGKPAALLTIVRKDGSAPRDVGDKMIVTADEEYGTIGGGTVEHLAVQDARSVLSGADDPGIRTYELERGGNTGMVCGGEMDVFIDHVRGQAQLYIAGGGHISVELAPLAERLGYAVTVVDDREAYADPTQFPDETDVIHGEYGEALGDLPMGTETAVAVATRSGTFDQAAVAAALDGEAGYVGLVASETKANHVLDSLAESGYARRDLSRVQTPVGLDLGGSGPAAVALSVLAEVTMDRHDATGARATRLNLDDLVVVRGGGDLGSGVVYRLQQAGFPVIVTEVDQPTVVRRAVAFGAALYEDEVEVEGVTGRAAADIDEALELLADDVVPVLVDPEATVADDLDAAVLVDAIMAKGAFDTGTRREDADVVVGMGPGFEAGEDVDAVVETDRGHELGRVFYDGLEHHHHHH,not failed
4,MSLFLKDDSIQIREVWNDNLQEEMDLIRDVVDDFPYVAMDTEFPGIVVRPVGTFKSNADYHYETLKTNVNILKMIQLGLTFSNEQGNLPTCGTDKYCIWQFNFREFDLDSDIFALDSIELLKQSGIDLAKNTLDGIDSKRFAELLMSSGIVLNENVHWVTFHSGYDFGYLLKLLTCQNLPDSQTDFFKLINVYFPTVYDIKHLMKFCNSLHGGLNKLAELLEVERVGICHQAGSDSLLTSCTFRKLKENFFVGPLHKYSGVLYGLGVENGQVAI,failed
5,MSLFRQGSQFMIIGALQLAVDCGIFIAATAAGMPAVPANLLGRIGGAMLGFWLNGRYTFAQQGDARLGWRRFRRFAAMWLTLTLISTWLLSTTVDLLGLRQAWLAKPLVEGGLAIVSFFLGRHVVYR,failed
6,MSLHDFTLADVYRRNAALFPDRTAFMVDGVRLTHRDYLARAERLASGLLRDGVHTGDRVAILSQNCSEMIELIGAVALIGAILLPVNYRLNADEIAFVLGDGAPSVVVAGTDYRDIVAGVLPSLGGVKKAYAIGDGSGPFAPFKDLASDTPFSAPEFGAADGFVIIHTAAVGGRPRGALISQGNLLIAQSSLVDAWRLTEADVNLGMLPLFHVTGLGLMLTLQQAGGASVIAAKFDPAQAARDIEAHKVTVMAEFAPMLGNILDQAAPAQLASLRAVTGLDTPETIERFEATCPNATFWATFGQSETSGLSTFAPYRDRPKSAGRPLFWRTVAVVDAEDRPLPPGEVGEIVLRGPTVFKGYWNNAAATQHAFRNGWHHTGDMGRFDADGYLFYAGRAPEKELIKTGGENVYPAEVEGALKQHPAIADAVVIGVPDPQWSEAIKAVCVCKPGESIAADALAEFVASLIARYKKPKHVVFVEALPKDAKGAIDRAAVKTAHGQEGHHHHHH,not failed
7,MSLHVTADAPGAAQGGYSVVTFRVPTESETAATTAMTVTLPNVRSARTEPMPGWTARVDRNDKSEAVSVTWTADPGNPGVQPGQFQRFVVSIGPLPSAETVSFPAEQTYSDGRVVAWNQPPAADGSEPEHPAPTLTLATAPGDTEGHHHHHH,not failed
8,MSLIASIGELLIDLISVEEGDLKDVRLFEKHPGGAPANVAVGVSRLGVKSSLISKVGNDPFGEYLIEELSKENVDTRGIVKDEKKHTGIVFVQLKGASPSFLLYDDVAYFNMTLNDINWDIVEEAKIVNFGSVILARNPSRETVMKVIKKIKGSSLIAFDVNLRLDLWRGQEEEMIKVLEESIKLADIVKASEEEVLYLENQGVEVKGSMLTAITLGPKGFRLIKNETVVDVPSYNVNPLDTTGAGDAFMAALLVGILKLKGLDLLKLGKFANLVAALSTQKRGAWSTPRKDELLKYKEAREVLAEGHHHHHH,not failed
9,MSLINEATLAESIRRLRQGERATLAQAMTLVESRHPRHQALSTQLLDAIMPYCGNTLRLGVTGTPGAGKSTFLEAFGMLLIREGLKVAVIAVDPSSPVTGGSILGDKTRMNDLARAEAAFIRPVPSSGHLGGASQRARELMLLCEAAGYDVVIVETVGVGQSETEVARMVDCFISLQIAGGGDDLQGIKKGLMEVADLIVINKDDGDNHTNVAIARHMYESALHILRRKYDEWQPRVLTCSALEKRGIDEIWHAIIDFKTALTASGRLQQVRQQQSVEWLRKQTEEEVLNHLFANEDFDRYYRQTLLAVKNNTLSPRTGLRQLSEFIQTQYFDEGHHHHHH,not failed
10,MSLIYTITLNPAIDRLLFIRGELEKRKTNRVIKTEFDCGGKGLHVSGVLSKFGIKNEALGIAGSDNLDKLYAILKEKHINHDFLVEAGTSTRECFVVLSDDTNGSTMIPEAGFTVSQTNKDNLLKQIAKKVKKEDMVVIAGSPPPHYTLSDFKELLRTVKATGAFLGCDNSGEYLNLAVEMGVDFIKPNEDEVIAILDEKTNSLEENIRTLAEKIPYLVVSLGAKGSICAHNGKLYQVIPPKVQERNDTGAGDVFVGAFIAGLAMNMPITETLKVATGCSASKVMQQDSSSFDLEAAGKLKNQVSIIQLEEREGHHHHHH,not failed
11,MSLKDFAGRTAFVTGGANGVGIGLVRQLLNQGCKVAIADIRQDSIDKALATLEAEGSGPEVMGVQLDVASREGFKMAADEVEARFGPVSILCNNAGVNLFQPIEESSYDDWDWLLGVNLHGVVNGVTTFVPRMVERVKAGEQKGGHVVNTASMAAFLAAGSPGIYNTTKFAVRGLSESLHYSLLKYEIGVSVLCPGLVKSYIYASDDIRPDALKGEVKPVDKTAVERLAGVHEFGMEPDVIGARVIEAMKANRLHIFSHPDHKEELREVFDEIIAEYQDYPKDPGYDQRVAFEKFRADSFAEARRQSRAADEGHHHHHH,not failed
12,MSLKIAAFGEVMLRFTPPEYLMLEQTEQLRMNFVGTGVNLLANLAHFQLETALITKLPANRLGEAGKAALRKLGISDQWVGEKGDHIGSFFAEMGYGIRPTQVTYQNRHQSAFGISEAKDYDFEAFLAEVDMVHICGISLSLTEKTRDAALILAQKAHAYQKKVCFDFNYRPSLNTANSALFMRQQYERILPYCDIVFGSRRDLVELLGFIPREDLEGEAQETELIQRFMSQYNLEWFAGTTRSHSQNQNYLSGYLYTQNEYQQSEKRPLLNLDRIGAGDAYAAGILYGYSQNWSLEKAVTFATVNGVLAHTIQGDIPLTTVKQVNHVLEHPNIDLIREGHHHHHH,not failed
13,MSLKIAKVEALSVAMGDGTGWMPTSAFVRITAEDGTVGWGEASPMLGGIASLGVVARDIAPFLEGQEVLDHAVLLDRMMHRLVKLGPEGIATAALAACDIALWDLKGKLLGQPIYKLLGGAWRTRLPCYSSIGGNAARSVDEVVREVARRVEAEQPAAVKIRWDGDRTRCDVDIPGDIAKARAVRELLGPDAVIGFDANNGYSVGGAIRVGRALEDLGYSWFEEPVQHYHVGAMGEVAQRLDITVSAGEQTYTLQALKDLILSGVRMVQPDIVKMGGITGMMQCAALAHAHGVEFVPHQTQPGVGHFANIHVLSTLMHMTKPVELADRWDRGRPVFRNPAEPVDGHFALGDAPGLGIVVDEDELASRATEITVGRDQRPPAGGQYEGHHHHHH,not failed
14,MSLKIKVYLYTRVSTSIQIEGYSLEAQKSRMKAFAIYNDYEIVGEYEDAGKSGKSIEGRIQFNRMMEDIKSGKDGVSFVLVFKLSRFARNAADVLSTLQIMQDYGVNLICVEDGIDSSKDAGKLMISVLSAVAEIERENIRIQTMEGCIQKAREGKWNGEGHHHHHH,not failed
15,MSLKITEVKAHALSTPIPERMRVESGAGLKLNRQMILVEVRTDEGVTGVGSPSGPYDLAVLKRAIEDVIGPQLIGEDPANINYLWHKVFHGEVSRNLGHRSVGIAAMSGVDIALWDLKGRAMNQPIYQLLGGKFHTRGVRAYASSIYWDLTPDQAADELAGWVEQGFTAAKLKVGRAPRKDAANLRAMRQRVGADVEILVDANQSLGRHDALAMLRILDEAGCYWFEEPLSIDDIEGHRILRAQGTPVRIATGENLYTRNAFNDYIRNDAIDVLQADASRAGGITEALAISASAASAHLAWNPHTFNDIITVAANLHLVAASPHPAMFEWDITHNDLMTRLASYDLKLENGLVQPPQGPGLGFEIDWDFVAAHAWKGEPAIGAGHGMKKEGHHHHHH,not failed
16,MSLKITSIEVFDCELKKRDQTMSSYNPVLIRVNTDSGLSGIGEVGLAYGAGAKAGVGIIRDLAPLIVGEDPLNIEKIWEFFFRKTFWGMGGGNVFYAGMSAIDIALWDIKGKYLGVPVYQLLGGKTNEKLRTYASQLQFGWGDKRHILVTPEEYAEAARAALDDGYDAIKVDPLEIDRNGDDCVFQNRNRNYSGLLLADQLKMGEARIAAMREAMGDDADIIVEIHSLLGTNSAIQFAKAIEKYRIFLYEEPIHPLNSDNMQKVSRSTTIPIATGERSYTRWGYRELLEKQSIAVAQPDLCLCGGITEGKKICDYANIYDTTVQVHVCGGPVSTVAALHMETAIPNFIIHEHHTNAMKASIRELCTHDYQPENGYYVAPEQPGLGQELNDEVVKEYLAYVIKEGHHHHHH,not failed
17,MSLKIYGVYRSRASRPLWLLAELDLPFEHVPVIQANRVAHPHGPEAPLNTASAAYLAVNPLGQIPCLEEEGLILTESLAITLHIARTQGGQLGPRSEPEDALMVSWSLFAATAVEPPALEIQLIQRSGGGTSPEGQAAIAIAAERLRRPLARLERHFAAEDYLVGGRFTVADLNLAETLRYGQAHPALLEPFPAVAAWLDRCQSRPAFRLMMERRAAEGHHHHHH,not failed
18,MSLKYLGVYVMEVQKNSSFKNKLQIGDTVLGANGHRFHSTEEMMTYLRKQKINSKVTISVLRGKEKLEHHHHHH,failed
19,MSLLESIAVVINLLGVWLTARRIRWCWPVGIVAVALYAWLFYQWKLYSDMLLQGVYVLTQLYGWWHWQPGTAADTRIRPLPMPSAERWLSLGIGAAFAATLGAYMHYRTDAVLPWLDAALASFSLVASVWAARKRIANWVLWIVLDCVYVGVFISKGLYPTAVLYAGFVALAVYGWHSWKTQQNQNLAVAR,failed
20,MSLMDYFAIHVVPKLYRGKGAFHPAETGKLTETVSCVREYDVNIFFIRKGNTLIAIDSGYKNHHALLPGCKKIEIDPKAVQALFLTHADPDHAGGLDIRCENCFINAEIYLGEIEENYLTNTIYRKKIGPFGLKNSVKIKDNYHLLKDGQSVSVGDLTIQPFLVPGHTLGHLMYLIDNELLFTGDSIALNQEGGWCFFDLFNYNSEMNIKSLKTLKEKLDLNRIKYVFTSHNGFTDKAKEAFAHVDVIPKWNEKGFIFDKTAPYDCFAD,failed
21,MSLNARARALRHSRSGTIGLIVPDVNNAVFADMFSGVQMAASGHSTDVLLGQIDAPPRGTQQLSRLVSEGRVDGVLLQRREDFDDDMLAAVLEGVPAVTINSRVPGRVGSVILDDQKGGGIATEHLITLGHSRIAFISGTAIHDTAQRRKEGYLETLASAGLRSEAAWVVDAGWEADAGSAALNTLYRGANLGKPDGPTAVVVASVNAAVGALSTALRLGLRVPEDLSIVGINTTWVSDTVYPALTTVRLPLQRLGEVAADVLMEHLGGRALTDTVVTQPTPELLVRETTAPPTREGHHHHHH,not failed
22,MSLNERILLVDDDYSLLNTLKRNLSFDFEVTTCESGPEALACIKKSDPFSVIMVDMRMPGMEGTEVIQKARLISPNSVYLMLTGNQDLTTAMEAVNEGQVFRFLNKPCQMSDIKAAINAGIKQYDLVTEGHHHHHH,not failed
23,MSLNETYMMITFQSGMDYWKRCLKGFEDAAQALNVTVEYRGAAQYDIQEQITVLEQAIAKNPAGIAISAIDPVELTDTINKAVDAGIPIVLFDSGAPDSHAHSFLGTNNYNAGMNAAYKMAELLDGEGEVAVITLPNQLNHQERTTGFKETLEAEFPAIEVIAVEDGRGDSLHSRRVAHQLLEDYPNLAGIFATEANGGVGVGDAVRLESRAGEIQIISFDTDKGTLDLVDEGIISATLAQGTWNMGYWSLTYLFHLHHGLTEPQILQTREEAPLPLYVDTGITIVTDENVDYYYADEGHHHHHH,not failed
